Measurements as given in patent US20230340152A1 (published 2023).

T1: Human CD73 ECD (human, UniProt P21589 27-549)
T1 construct: Biotinylated in some assays; also called human CD73 extracellular domain; huCD73
T1 sequence: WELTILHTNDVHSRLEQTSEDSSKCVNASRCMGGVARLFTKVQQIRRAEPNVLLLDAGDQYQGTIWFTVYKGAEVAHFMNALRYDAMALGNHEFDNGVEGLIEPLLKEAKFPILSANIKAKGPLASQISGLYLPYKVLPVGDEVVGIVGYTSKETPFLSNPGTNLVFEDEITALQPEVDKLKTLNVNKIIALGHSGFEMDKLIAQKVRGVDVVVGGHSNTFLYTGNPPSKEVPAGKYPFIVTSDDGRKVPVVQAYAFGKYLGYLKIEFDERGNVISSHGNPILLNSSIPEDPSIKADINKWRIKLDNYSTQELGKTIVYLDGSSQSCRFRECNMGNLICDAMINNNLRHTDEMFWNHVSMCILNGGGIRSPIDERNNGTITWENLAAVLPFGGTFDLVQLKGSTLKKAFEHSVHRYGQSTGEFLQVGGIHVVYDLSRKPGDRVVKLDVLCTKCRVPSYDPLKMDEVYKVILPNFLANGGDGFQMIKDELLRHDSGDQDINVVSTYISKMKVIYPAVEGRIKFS

T2: Murine CD73 ECD (murine, UniProt Q61503 29-551, limits assumed)
T2 construct: extracellular domain; In-house recombinant ECD; also called murine CD73 extracellular domain; muCD73
T2 sequence (looked up): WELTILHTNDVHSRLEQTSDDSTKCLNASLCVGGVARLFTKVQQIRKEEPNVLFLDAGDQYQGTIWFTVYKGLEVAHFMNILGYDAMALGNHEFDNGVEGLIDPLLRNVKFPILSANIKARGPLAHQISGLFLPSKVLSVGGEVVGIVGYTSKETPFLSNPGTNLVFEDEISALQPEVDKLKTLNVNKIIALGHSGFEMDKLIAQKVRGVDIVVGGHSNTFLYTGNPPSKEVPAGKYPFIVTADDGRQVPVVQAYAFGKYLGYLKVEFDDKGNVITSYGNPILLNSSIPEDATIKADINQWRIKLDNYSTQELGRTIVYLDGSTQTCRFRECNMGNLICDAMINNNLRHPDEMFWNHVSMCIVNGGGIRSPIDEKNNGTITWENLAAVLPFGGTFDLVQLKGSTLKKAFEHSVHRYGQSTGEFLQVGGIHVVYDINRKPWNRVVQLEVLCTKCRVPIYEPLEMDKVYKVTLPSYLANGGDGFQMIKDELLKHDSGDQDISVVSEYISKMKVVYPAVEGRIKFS

T3: Human CD73 on cells (MDA-MB-231, Jurkat CD73 knock-in, NCI-H322) (human, UniProt P21589 27-549)
T3 sequence: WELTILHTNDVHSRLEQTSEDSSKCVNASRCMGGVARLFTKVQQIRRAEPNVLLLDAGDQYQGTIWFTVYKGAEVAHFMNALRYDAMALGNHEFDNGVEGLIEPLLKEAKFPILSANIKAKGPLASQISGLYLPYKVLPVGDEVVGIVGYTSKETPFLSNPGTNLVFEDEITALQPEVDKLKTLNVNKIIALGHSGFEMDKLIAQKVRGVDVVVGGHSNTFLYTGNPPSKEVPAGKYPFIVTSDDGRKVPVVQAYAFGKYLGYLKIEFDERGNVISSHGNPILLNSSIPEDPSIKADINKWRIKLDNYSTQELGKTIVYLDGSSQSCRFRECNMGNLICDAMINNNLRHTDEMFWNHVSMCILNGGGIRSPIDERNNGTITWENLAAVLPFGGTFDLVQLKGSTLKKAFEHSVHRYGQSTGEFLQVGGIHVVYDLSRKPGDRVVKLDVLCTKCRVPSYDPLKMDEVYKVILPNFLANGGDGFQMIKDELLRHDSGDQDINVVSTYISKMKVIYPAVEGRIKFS

T4: Cynomolgus CD73 ECD (cynomolgus, UniProt A0A2K5V5U7 27-549)
T4 construct: extracellular domain; also called cyno CD73
T4 sequence: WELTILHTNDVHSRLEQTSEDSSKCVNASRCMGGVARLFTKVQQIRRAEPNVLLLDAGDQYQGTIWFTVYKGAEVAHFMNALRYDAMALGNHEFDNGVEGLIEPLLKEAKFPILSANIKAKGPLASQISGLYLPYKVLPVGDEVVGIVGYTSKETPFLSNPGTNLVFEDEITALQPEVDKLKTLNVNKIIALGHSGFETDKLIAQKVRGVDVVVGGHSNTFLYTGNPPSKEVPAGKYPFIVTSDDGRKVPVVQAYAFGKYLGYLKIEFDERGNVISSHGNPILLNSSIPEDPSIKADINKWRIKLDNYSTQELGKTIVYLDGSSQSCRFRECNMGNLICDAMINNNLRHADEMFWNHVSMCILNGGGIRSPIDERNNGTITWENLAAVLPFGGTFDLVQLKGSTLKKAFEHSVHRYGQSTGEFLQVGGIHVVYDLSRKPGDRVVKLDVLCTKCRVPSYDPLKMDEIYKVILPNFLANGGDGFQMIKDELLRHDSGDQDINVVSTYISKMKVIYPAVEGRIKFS


Legend:
Human CD73 ECD [1] = target: T1, Human CD73 ECD; assay: direct ELISA, normalized Fab supernatant, vs CD730010 GL9
Murine CD73 ECD [2] = target: T2, Murine CD73 ECD; assay: as above
[3] = target: T3, Human CD73 on cells (MDA-MB-231, Jurkat …); assay: cell-based or functional assay
Human CD73 ECD [4] = target: T1, Human CD73 ECD; assay: cell-based or functional assay
Cynomolgus CD73 ECD = target: T4, Cynomolgus CD73 ECD; assay: binding assay, format not stated
Human CD73 ECD [5] = target: T1, Human CD73 ECD; assay: binding assay, format not stated
Murine CD73 ECD [6] = target: T2, Murine CD73 ECD; assay: binding assay, format not stated

Row | Binder | ELISA signal, fold improvement over parental antibody (Human CD73 ECD [1]) | ELISA signal, fold improvement over parental antibody (Murine CD73 ECD [2]) | Enzyme Inhibition, MDA-MB-231, 1/EC50 (nM) [3] | Internalization, MDA-MB-231, 1/EC50 (nM) [3] | Enzyme Inhibition, rCD73, 1/EC50 (nM) (Human CD73 ECD [4]) | 1/EC50 (Cynomolgus CD73 ECD) | 1/EC50 (Human CD73 ECD [5]) | 1/EC50 (Murine CD73 ECD [6])
1 | CD730010 GL9 VH M34Y Fab (Fab, name in Kabat numbering, V domains shown, Bacterial Fab, normalized supernatant) VH: EVQLLESGGGLVQPGGSLRLSCAASGFTFSSYAYSWVRQAPGKGLEWVSAISGSGGSTYYADSVKGRFTISRDNSKNTLYLQMNSLRAEDTAVYYCARLGYSTIDYWGRGTLVTVSS VL: not shown | 3.9 fold | 2.9 fold |  |  |  |  |  | 
2 | CD730010 GL9 VH S35H Fab (Fab, name in Kabat numbering, V domains shown, Bacterial Fab, normalized supernatant) VH: EVQLLESGGGLVQPGGSLRLSCAASGFTFSSYAMHWVRQAPGKGLEWVSAISGSGGSTYYADSVKGRFTISRDNSKNTLYLQMNSLRAEDTAVYYCARLGYSTIDYWGRGTLVTVSS VL: not shown | 1.8 fold | 1.1 fold |  |  |  |  |  | 
3 | CD730010 GL9 VH M34I Fab (Fab, name in Kabat numbering, V domains shown, Bacterial Fab, normalized supernatant) VH: EVQLLESGGGLVQPGGSLRLSCAASGFTFSSYAISWVRQAPGKGLEWVSAISGSGGSTYYADSVKGRFTISRDNSKNTLYLQMNSLRAEDTAVYYCARLGYSTIDYWGRGTLVTVSS VL: not shown | 1.5 fold | 1.1 fold |  |  |  |  |  | 
4 | CD730010 GL9 VH S52W Fab (Fab, name in Kabat numbering, V domains shown, Bacterial Fab, normalized supernatant) VH: EVQLLESGGGLVQPGGSLRLSCAASGFTFSSYAMSWVRQAPGKGLEWVSAIWGSGGSTYYADSVKGRFTISRDNSKNTLYLQMNSLRAEDTAVYYCARLGYSTIDYWGRGTLVTVSS VL: not shown | 8.9 fold | 4.4 fold |  |  |  |  |  | 
5 | CD730011 (antibody, V domains shown, IgG1-TM format; also called CD730011 antibody; CD7300011) VH: not shown VL: NFMLTQPHSVSESPGKTVTISCTRSSGSIASKYVQWYQQRPGSSPMAVIYKDNQRSSGVPDRFSGSIDSSSNSASLTISGLKPEDEADYYCQSYDASNYYVFGTGTKVTVL |  |  | 0.00068 nM⁻¹ | 0 nM⁻¹ | 0 nM⁻¹ | 0.0027 nM⁻¹ | 0.0021 nM⁻¹ | 0.0015 nM⁻¹
6 | CD730046 (antibody, V domains shown, IgG1-TM format; also called CD730046 antibody) VH: QVQLVQSGGGVVQPGRSLRLSCAASGFTFSSYGMHWVRQAPGKGLEWVAVISYDGSIKYYADSVKGRFTISRDNSKNSLFLQMNSLRDDDTATYYCARGHLLRIGDIFYYSLDVWGQGTLVTVSS VL: not shown |  |  | 0.081 nM⁻¹ | 0 nM⁻¹ | 0 nM⁻¹ | 0.01 nM⁻¹ | 0.0041 nM⁻¹ | 0.0052 nM⁻¹
7 | CD730021 (antibody, V domains shown, IgG1-TM format; also called CD730021 antibody) VH: QVQLQESGPGLVRPSETLSLTCTVSGGSISSSSYYWAWVRQSPGKGLEWIGNIYYRGSTYYNPSLKSRVTMSVDMSKHQFSLKLSSLNAADTAVYYCASLYSGTYVFDYWGRGTLVTVSS VL: QSVLTQPPSASGTPGQRVTISCSGSRPNIGGNTVNWYQQLPGAAPKLLIYSNSQRPSGVPDRFSGSKYGTSASLAISGLQSDDEADYYCGTWDDSLNGPVFGRGTKLTVL |  |  | 0.0095 nM⁻¹ | 0.0011 nM⁻¹ | 0.0011 nM⁻¹ | 0.0012 nM⁻¹ | 0.00085 nM⁻¹ | 0.00057 nM⁻¹
